Data as given in PMC2628434.
Where a chain is given by its changes, count along the chain named. Names and notes keep the numbering of the source. Read-outs that look alike come from different tables or passages of the source.

Tests used:
LuxR [1] = biological target: T1, LuxR (Vibrio harveyi, UniProt P21308 1-205); experiment: fluorescence anisotropy
T1 sequence: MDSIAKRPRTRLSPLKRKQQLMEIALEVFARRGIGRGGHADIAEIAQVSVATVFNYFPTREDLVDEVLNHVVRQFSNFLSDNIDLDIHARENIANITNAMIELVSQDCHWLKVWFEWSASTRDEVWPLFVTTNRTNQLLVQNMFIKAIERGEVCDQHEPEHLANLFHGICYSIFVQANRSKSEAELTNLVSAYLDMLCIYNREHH

LuxR [2] = biological target: T1, LuxR; experiment: fluorescence anisotropy; remark: listed apart in the source

B1: Consensus (dsDNA)
DNA 1: ACTGATATTGATAAATTTATCAATAATGACT
DNA 2: AGTCATTATTGATAAATTTATCAATATCAGT
Work on B1 yielded a Kd (LuxR [1]) of 0.024 ± 0.004 µM.

B2: VP0944/5 (dsDNA)
DNA 1: TAGAGTTAGTATCAATTTAATCAATAAGATA
DNA 2: TATCTTATTGATTAAATTGATACTAACTCTA
Binder B2 has a Kd (LuxR [1]) of 0.03 ± 0.007 µM.

B3: qrgB WT (dsDNA)
DNA 1: TGTTTATATTGAGTTCACAATCAATACCGATCA
DNA 2: TGATCGGTATTGATTGTGAACTCAATATAAACA
Work on B3 yielded a Kd (LuxR [1]) of 0.027 ± 0.003 µM.

B4: qrgB A2C A17C (dsDNA)
DNA 1: B3 DNA 1 with A8C, A23C
DNA 2: B3 DNA 2 with T11G, T26G
B4 showed a Kd (LuxR [1]) of 0.242 ± 0.046 µM.

B5: qrgB A17C (dsDNA)
DNA 1: B3 DNA 1 with A23C
DNA 2: B3 DNA 2 with T11G
Binder B5 has a Kd (LuxR [1]) of 0.043 ± 0.006 µM.

B6: qrgB A2C (dsDNA)
DNA 1: B3 DNA 1 with A8C
DNA 2: B3 DNA 2 with T26G
B6 gave a Kd (LuxR [1]) of 0.027 ± 0.004 µM.

B7: qrgB A6C (dsDNA)
DNA 1: B3 DNA 1 with A12C
DNA 2: B3 DNA 2 with T22G
In the case of B7, the Kd (LuxR [1]) is reported as 0.044 ± 0.005 µM.

B8: VPA0197/8 (dsDNA)
DNA 1: TAAGGTAAATAATTATTTTAACAATAATTAA
DNA 2: TTAATTATTGTTAAAATAATTATTTACCTTA
B8 gave a Kd (LuxR [1]) of 0.068 ± 0.011 µM.

B9: VP0057/8 (dsDNA)
DNA 1: AACATTACTGATAAATTAGATATTTATGGCT
DNA 2: AGCCATAAATATCTAATTTATCAGTAATGTT
B9 showed a Kd (LuxR [1]) of 0.047 ± 0.008 µM.

B10: VPA0649 (dsDNA)
DNA 1: ATTCCTTATTTACCAATTTATAAACTATGAA
DNA 2: TTCATAGTTTATAAATTGGTAAATAAGGAAT
B10 gave a Kd (LuxR [1]) of 0.03 ± 0.008 µM.

B11: VPA0226/7 (dsDNA)
DNA 1: ACCAAAATTGATAAAATGAATAATTAGATAT
DNA 2: ATATCTAATTATTCATTTTATCAATTTTGGT
B11 gave a Kd (LuxR [1]) of 0.073 ± 0.012 µM.

B12: qrr4 A17C (dsDNA)
DNA 1: CATTTTTCTGATAAATGTATTCGTAGCAATG
DNA 2: CATTGCTACGAATACATTTATCAGAAAAATG
In the case of B12, the Kd (LuxR [1]) is reported as 0.038 ± 0.005 µM.

B13: qrr4 A6C (dsDNA)
DNA 1: B12 DNA 1 with A11C, C22A
DNA 2: B12 DNA 2 with G10T, T21G
In the case of B13, the Kd (LuxR [1]) is reported as 0.068 ± 0.011 µM.

B14: qrr4 T15C (dsDNA)
DNA 1: B12 DNA 1 with T20C, C22A
DNA 2: B12 DNA 2 with G10T, A12G
B14 showed a Kd (LuxR [1]) of 0.027 ± 0.004 µM.

B15: qrr4 WT (dsDNA)
DNA 1: B12 DNA 1 with C22A
DNA 2: B12 DNA 2 with G10T
In the case of B15, the Kd (LuxR [1]) is reported as 0.035 ± 0.004 µM.

B16: qrr4 A6C A17C (dsDNA)
DNA 1: B12 DNA 1 with A11C
DNA 2: B12 DNA 2 with T21G
B16 gave a Kd (LuxR [1]) of 0.112 ± 0.027 µM.

B17: Negative control (dsDNA)
DNA 1: ACTGACTGACTGACTGACTGACTGACTGACT
DNA 2: AGTCAGTCAGTCAGTCAGTCAGTCAGTCAGT
B17 showed a Kd (LuxR [2]) of 0.136 ± 0.063 µM.
